# Reference: patent publication US20040071694A1
# Molecular target: biotinylated EpoR (Abbott CHO cell derived ref.# RB69084:4) (UniProt P19235)
# Test: immunofluorescence microscopy on EpoR-coated sheep red blood cells
# Chain of biotinylated EpoR (Abbott CHO cell derived ref.# RB69084:4) (P19235 25-250 limits assumed): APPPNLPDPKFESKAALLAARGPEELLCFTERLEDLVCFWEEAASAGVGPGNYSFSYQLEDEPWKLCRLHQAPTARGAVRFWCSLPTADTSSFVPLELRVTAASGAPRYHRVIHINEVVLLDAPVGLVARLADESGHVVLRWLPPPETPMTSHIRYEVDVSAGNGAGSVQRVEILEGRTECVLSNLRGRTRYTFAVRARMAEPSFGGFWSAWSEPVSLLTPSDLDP
substance,measurement,value
murine antiEpoR antibody (R&D Systems Cat.# MAB307),immunofluorescence score (arbitrary scale of 0-4) (score out of 4),4
